# Tests used:
# [1] = test system: Compound 30, Ac-Cys-Mal-PEG4-Phe-Arg-Lys(Mal-DM1)-Arg-Lys(AF)-Phe-OH
# [2] = test system: Compound 6, DM1-Mal-Phe-Cit-Lys(PEG4-Mal-Cys-Ac)-Phe-OH
# [3] = test system: Compound 9, Arg-PEG4-Phe-Arg-Dap(CO-CPT)-Phe-OH
# [4] = test system: Compound 29, Ac-Cys-Mal-PEG4-[Phe-Lys-Lys(Mal-DM1)-Phe]2-OH
# [5] = test system: Compound 12, Ac-Cys-Mal-PEG4-Phe-Lys-Lys(Mal-DM1)-Phe-OH
# [6] = test system: Compound 31, AF-Cit-Lys(Mal-DM1)-Phe-Lys(PEG4-Mal-Cys-Ac)-Phe-OH
# [7] = test system: Compound 28, Ac-Cys-Mal-PEG4-Phe-Lys-Lys(Mal-DM1)-Phe-Phe-Lys-OH
# [8] = test system: Compound 22, DM1-Mcc-Phe-Cit-Lys(PEG5-Ma-Cys-Ac)-Tyr-OH
# [9] = test system: Compound 11, Arg-PEG4-Phe-Arg-Ser(CO-CPT)-Phe-OH
# [10] = test system: Compound 1, AF-Arg-Lys(PEG4-Mal-Cys-Ac)-Phe-OH
# [11] = test system: Compound 16, Arg-PEG4-Phe-Arg-Glu(Sar-OCPT)-Arg-Phe-Arg-OH
# [12] = test system: Compound 27, Ac-Cys-Ma-PEG5-Phe-Cit-Lys(Mcc-DM1)-Tyr-OH
# [13] = test system: Compound 5, DM1-Mal-Phe-Lys-Lys(PEG4-Mal-Cys-Ac)-Phe-OH
# [14] = test system: Compound 32, Ac-Cys-Mal-[PEG5-Lys(AF-Cit-Lys(Y)-Phe-OH)]2-Gly-NH2
# [15] = test system: Compound 3, AF-Arg-Phe-Lys(PEG4-Mal-Cys-Ac)-OH
# [16] = test system: Compound 15, Arg-PEG4-Phe-Arg-Glu(Sar-OCPT)-Arg-OH
# [17] = test system: Compound 19, AF-Cit-Lys(PEG4-Mal-Cys-Ac)-Phe-OH
# [18] = test system: Compound 10, Arg-PEG4-Phe-Arg-Dab(CO-CPT)-Phe-OH
# [19] = test system: Compound 7, DM1-Mal-Phe-Cit-Phe-Lys(PEG4-Mal-Cys-Ac)-OH
# [20] = test system: Compound 8, Arg-PEG4-Phe-Arg-Glu(Sar-OCPT)-Phe-OH
# [21] = test system: Compound 13, Ac-Cys-Mal-PEG4-Phe-Lys-Lys(AF)-Phe-OH
# [22] = test system: Compound 23, DM1-Mcc-Cit-Lys(PEG5-Ma-Cys-Ac)-Tyr-OH
# [23] = test system: Compound 18, Arg-PEG4-[Phe-Arg-Glu(Sar-OCPT)-Arg]2-OH
# [24] = test system: Compound 17, Arg-PEG4-Phe-Arg-[Glu(Sar-OCPT)-Phe]2-OH
substance,measurement,setting,value
Recombinant human Cathepsin B,"T1/2 Compound (min), Cat B-induced cleavage",[1],1.1 min
same,"T1/2 Compound (min), Cat B-induced cleavage",[2],0.3 min
same,"T1/2 Compound (min), Cat B-induced cleavage",[3],4.5 min
same,"T1/2 Compound (min), Cat B-induced cleavage",[4],2.4 min
same,"T1/2 Compound (min), Cat B-induced cleavage",[5],1.5 min
same,"T1/2 Compound (min), Cat B-induced cleavage",[6],1.08 min
same,"T1/2 Compound (min), Cat B-induced cleavage",[7],0.3 min
same,"T1/2 Compound (min), Cat B-induced cleavage",[8],0.06 min
same,"T1/2 Compound (min), Cat B-induced cleavage",[9],2.2 min
same,"T1/2 Compound (min), Cat B-induced cleavage",[10],1.5 min
same,Cat B-induced cleavage (in vitro enzymatic cleavage assay),[11],"compound 16 as a first intermediate, which is in turn rapidly cleaved via exo-Cat B mechanism to release compound 15 as a second intermediate"
same,"T1/2 Compound (min), Cat B-induced cleavage",[12],0.06 min
same,"T1/2 Compound (min), Cat B-induced cleavage",[13],0.6 min
same,"T1/2 Compound (min), Cat B-induced cleavage",[14],0.98 min
same,"T1/2 Compound (min), Cat B-induced cleavage",[15],1.4 min
same,Cat B-induced cleavage (in vitro enzymatic cleavage assay),[16],Cat B-induced cleavage of compound 15 releases a second C-terminal dipeptide-drug unit H-Glu(Sar-OCPT)-Arg-OH
same,"T1/2 Compound (min), Cat B-induced cleavage",[17],1.1 min
same,"T1/2 Compound (min), Cat B-induced cleavage",[18],0.9 min
same,"T1/2 Compound (min), Cat B-induced cleavage",[19],1.2 min
same,Cat B-induced cleavage (in vitro enzymatic cleavage assay),[20],compound 8 was rapidly cleaved to release the C-terminal dipeptide-drug unit H-Glu(Sar-OCPT)-Phe-OH
same,"T1/2 Compound (min), Cat B-induced cleavage",[20],2.2 min
same,"T1/2 Compound (min), Cat B-induced cleavage",[21],1.6 min
same,"T1/2 Compound (min), Cat B-induced cleavage",[22],0.0004 min
same,Cat B-induced cleavage (in vitro enzymatic cleavage assay),[23],Cat B-induced cleavage of compound 18 rapidly released the C-terminal dipeptide-drug unit H-Glu(Sar-OCPT)-Arg-OH and compound 16 as a first intermediate
same,Cat B-induced cleavage (in vitro enzymatic cleavage assay),[24],Cat B-induced cleavage of compound 17 rapidly released C-terminal dipeptide-drug unit Glu(Sar-OCPT)-Phe-OH and compound 8 as an intermediate

# — patent US20220062371
